In article PMC8064889 (Cell Reports, 2021):

What was measured:
[1] = target: SARS-CoV-2 RBD, His6-tagged, for biolayer interferometry (SARS-CoV-2, UniProt P0DTC2); assay: BLI; details: both partners purified
[2] = target: Avi-tag biotinylated RBD of SARS-CoV-2 S protein (SARS-CoV-2, UniProt P0DTC2); assay: flow cytometry on cells; details: both partners purified

B1: 47D1 IgG (antibody, V domains shown)
VH: QVQLVQSGAEVKKPGSSVRVSCKASGGTFSTYPISWVRQAPGQGLEWMGGIIPIFGTAKSAQKFQGRVTITADEFTSTAYMEMSSLRSEDTAMYYCAREGRRYGSGWYISTGYFDYWGQGTLVTVSS
VL: QLVLTQPASVSGSPGQSIIVSCTGTSSDVGGYKFVSWYQQHPGKAPRVMIYDVSNRPSGVSNRFSGSKSGNTASLTISGLQADDEADYYCSSYTNSSTVVFGGGTKVTVL
[1]
  binding result: binds
[2]
  binding result: binds
